According to patent US20160238591A1 (MIT, published 2016):

Target: T1, Cys2-pilin-C (Streptococcus pyogenes serotype M1, UniProt Q9A1S2 18-299, N-terminal Cys2 linker attached to the shell surface of the nanocrystal (QD or dot-in-rod HNC) during shell synthesis)
T1 construct: Tested only as a nanocrystal conjugate; also called QD-pilin-C; CdSe/CdS QD-pilin-C conjugates
T1 sequence: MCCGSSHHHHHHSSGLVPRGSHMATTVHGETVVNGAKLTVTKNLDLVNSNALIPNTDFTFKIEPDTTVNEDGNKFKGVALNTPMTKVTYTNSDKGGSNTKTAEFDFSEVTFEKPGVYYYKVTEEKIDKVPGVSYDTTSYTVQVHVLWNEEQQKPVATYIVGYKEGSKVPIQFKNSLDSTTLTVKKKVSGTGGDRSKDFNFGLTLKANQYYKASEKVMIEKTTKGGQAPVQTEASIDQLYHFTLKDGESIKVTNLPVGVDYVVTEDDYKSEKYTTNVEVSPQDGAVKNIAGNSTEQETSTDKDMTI
Test: TEM and HRTEM (FIGS. 11, 11A and 11B)

B1: CsgAHisTag amyloid fibrils (other)
chain: GVVPQYGGGGNHGGGGNNSGPNHHHHHHHSELNIYQYGGGNSALALQTDARNSDLTITQHGGGNGADVGQGSDDSSIDLTQRGFGNSATLDQWNGKNSEMTVKQFGGGNGAAVDQTASNSSVNVTQVGFGNNATAHQYHHHHHHH
notes: Fibrils composed only of CsgAHisTag subunits, used as a control for QD-pilin-C
binding result: no binding
